# Laboratory results taken from article PMC6109178.
# pKd: −log10 of the molar value.
# Assays:
# [1] = molecular target: Mouse P-gp-ECL1&4-h18 (mouse) (UniProt P21447); assay: flow cytometry on cells; apparent Kd; HeLa cells expressing the P-gp variant (300,000 cells/assay) stained with UIC2 at 0.01 to 3 µg per 100,000 cells for 30 min at 37 °C; GraphPad Prism
# [2] = molecular target: Mouse P-gp-ECL13&4-h19 (mouse) (UniProt P21447); assay: as above
# [3] = molecular target: Mouse P-gp-ECL1&4-h18 (mouse) (UniProt P21447); assay: flow cytometry on cells; UIC2 shift assay: HeLa cells incubated 5 min at 37 °C with DMSO or 20 µM cyclosporine A before UIC2 at saturated concentration (3 µg/100,000 cells), 30 min; FITC-labeled anti-mouse secondary antibody
# [4] = molecular target: Mouse P-gp-ECL13&4-h19 (mouse) (UniProt P21447); assay: as above
substance,measurement,setting,value
UIC2 monoclonal antibody,pKd,[1],7.93
same,pKd,[2],8.29
same,fold increase of UIC2 binding after 20 µM cyclosporine A against DMSO,[3],1.4 to 1.7 fold
same,fold increase of UIC2 binding after 20 µM cyclosporine A against DMSO,[4],1.2 to 1.4 fold
